For assay [1], the target named is mouse ACVR1 extracellular domain expressed with a C-terminal myc-myc-hexahistidine tag (mouse). Put plainly: SPR (Biacore), mAb captured, 37 C. (In SPR one partner is held on a chip, and binding of the other changes the refractive index at the surface.)
Assay [2] shares this target. Nature of the assay: SPR (Biacore), mAb captured, 25 C.
In assay [3] the target is human ACVR1 extracellular domain expressed with a C-terminal mouse IgG2a Fc tag (human). Nature of the assay: SPR (Biacore), mAb captured, 37 C.
The target is the same in assay [4]. Put plainly: SPR (Biacore), mAb captured, 25 C.

Sequence of mouse ACVR1 extracellular domain expressed with a C-terminal myc-myc-hexahistidine tag (mouse) (chain, as listed by the source limits assumed): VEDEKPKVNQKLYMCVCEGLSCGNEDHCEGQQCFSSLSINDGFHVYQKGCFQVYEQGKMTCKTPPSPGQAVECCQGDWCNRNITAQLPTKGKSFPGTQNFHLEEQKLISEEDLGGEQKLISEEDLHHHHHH
Sequence of human ACVR1 extracellular domain expressed with a C-terminal mouse IgG2a Fc tag (human) (chain, as listed by the source limits assumed): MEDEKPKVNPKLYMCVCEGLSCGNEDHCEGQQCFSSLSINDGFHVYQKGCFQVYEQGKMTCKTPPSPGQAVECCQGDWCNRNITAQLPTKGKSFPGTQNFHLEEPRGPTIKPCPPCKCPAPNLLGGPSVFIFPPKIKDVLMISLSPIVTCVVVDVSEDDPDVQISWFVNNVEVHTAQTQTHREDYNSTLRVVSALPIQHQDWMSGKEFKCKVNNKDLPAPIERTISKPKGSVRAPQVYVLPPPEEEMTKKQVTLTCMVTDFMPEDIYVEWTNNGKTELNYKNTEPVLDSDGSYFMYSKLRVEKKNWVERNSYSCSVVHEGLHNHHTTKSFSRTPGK

B1: mAb29266 (antibody, human IgG4 S228P, kappa, V domains shown)
VH: QVQLVESGGGVVQPGRSLRLSCEVSGFTFSNYGMHWVRQAPGKGLEWVAVVSYDGSNKYYTDSVKGRFTISRDNSKNTLSLQMNSLRAEDTAVYYCAKDRGITGTSGGVFDIWGQGTMVTVSS
VL: AIRMTQSPSSFSATTGDRVTITCRASQGISSHLAWYQQKPGKAPKFLIYVASTLQSGVPSRFSGSGSGTDFTLTISSLQSEDFATYYCQQYYSYPPTFGQGTKVEIKR
As to B1, the 900 nM or 100 nM Ag Bound (RU) in assay [1] and in assay [2] was 5 RU each time.

B2: mAb29261 (antibody, human IgG4 S228P, kappa, V domains shown)
VH: EVQLVESGGNLVQPGGSLRLSCAASGFTFSNYAMSWVRQAPGKGLEWVSGITGNGINTYYSVSVKGRFTISRDNSKNTVFLQMNSLRAEDTAIYYCVKERGHSWFGDWFDPWGQGTLVTVSS
VL: DIQMTQSPSSLSASVGDRVTITCRASQGIRNDLGWYQQKPGKAPKRLIYAASSLQSGVPSRFSGSGSGTEFTLTISSLQPEDFATYYCLQHNSYPWTFGQGTKVEIKR
For the molecule B2, the 100 nM Ag Bound (RU) turned out to be 11 RU in assay [3] and 0 RU in assay [4].

For the origin of these results see patent US20210253716A1.
